In the nanobody polyreactivity screen of Harvey et al. (2022):

Experiment: yeast display, Sf9 membrane polyspecificity reagent, FACS + sequencing; frameworks hold sequencing errors
Procedure, shortened: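 Galactose-induced (36–48 hours) yeast carrying a synthetic nanobody display library were exposed to 10% biotinylated, detergent-solubilized Sf9 membrane reagent at 4 °C for 1 hour. FACS followed streptavidin microbead enrichment, using low and high (top ~1%) gates for expression (anti-HA) and reagent binding (streptavidin). Colony PCR, MiSeq 2 × 250 sequencing and CDR-length filtering followed. Labels for polyreactivity reflect the gate of origin.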

Sequence | polyreactivity (PSR sort gate)
QVQLVESGGGLVQAGGSLRLSCAASGSIFYENVMGWYRQAPGKERELVAGISRSGGRTYYADSVKGRFTISRDNAKNTVYLQMNSLKPEDTAVYYCNAARVYLSEWGQGTQVTVSS | high polyreactivity
QVQLVESGGGIVQAGGSLRLSSAASGFTFDSNAMGWYRQPPGKERELVAAISASGDSTYYADSVKGRFTISRDNAKNTVYLQMNSLKPEDTAVYYCAADSYYGGWRFDHWGQGTQVTVSS | low polyreactivity
QVQLVESGGGLVQAGGSLRLICAASGFIFVWYAMGWYRQAPGKERELVAAISRRGGGTYYADSVKGRFTISRDNAKNTVYLQMNSLKPEDTAVYYCAAGSYYRYGYDFNYWGQGTQVTVSS | high polyreactivity
QVQLVESGGGLVQAGGSLRLSCAASGSIFIYYAMGWYRQAPGKERELVAAISYSDGDTYYADSVKGRFTISRDNAKNTVYLQMNSLKPEDTAVYYCAAEVPQYYDVGWEDYCGQGTQVTVSS | high polyreactivity
QVQLVESGGGLVQAGGSLRLSCAASGSTFDYYDMGWYRPAPGKERELVAAISSGGDSTYYADSVKGRFTISRDNAKNTVYLQFNSLKPEDSAVYYCAAPDESYSVWRLDGLDYWGQGTQVTVSS | high polyreactivity
AVQLVESGGGLVQAGGSLRLSCAASGSIFPWYTMGWYRQAPGKERELVASITKSGARTYYADSVKGRFTISRDNAKNTVYLQMNSLKPEDTAVYYCAAVYPVWKYHYAYWGQGTQVTVSS | high polyreactivity
QVQLVESGGGLVQAGGSLRLSCAASGSIFYGYTMGWSRQAPGKEREFVAAITGSGGSTYYADSVKGRFTISRDTPKNTVYVQMNTLKPEDTAVYYCAARRYVNRRYDYWGQGTQVTVSS | high polyreactivity
QVQLVESGGGLVQAGGSIRLSCAASGSIFVDNARGWYRPAPGKERELVAAIRSRDTSTYYADSVKGRFTISRDNAKHTVYLQMNSLKPEDTAVYYCAARTSKRVSQYNYWGQGTQVTVSS | high polyreactivity
QVQLVESGGGLVQAGGSLRLSCAASGRTFDYYVMGWYRQAPGKERELVAAISTSGGRTYYADSVKGRFTISRDNAKNTVYLQMNSLKPEDTAVYYCAAYWGGWSFRYLYDYWGQGTQVTVSS | high polyreactivity
QVQLVESGGGLVQAGGSLRLSCAASGSIFNYNMGWYRQAPGKERELVAAVSTNYADTVKGRFTISRDNAKNTVYLQMNSLKPEDTAVYYCGVTPEKSGDEYDYGGQGTQVTVSS | low polyreactivity
QFQLVESGGGLVQAGGSLRLSSAPSGIIFPYYAMGWYRQAPGKERELVAAISRTGSTYYADSVKGRFTISRDNAKNTVYLQMNRLNPEVTAVYYCAARTYYSQGTSSVSLQQYGYWGEGTQVTVSS | low polyreactivity
QVQLVESGGRLVQAGGSLRLSCAASGSTFTVYAMGWYRQAPGKESELVAVITGSGGSTYYADSVKGRFTISRDNAKNTVYLQINSLKPEDTAVYYCAKEPGENWTVSWRDFDYWGQGTQVTVSS | low polyreactivity
QVQLVESGGGLVQAGGSLRLSCAASGSILARYAMGWYRPAPGKERELVAAISSRGGSTYYADSVKGRFTISRDNAKNTVYLEINSLKPEDTAVYSCAAYVYLQVEYDYWGHGTQVTVSS | low polyreactivity
QVQLVESGGGLVQAGGSLRLSCAASGSTFYYYAMGWYRPAPGKERELVAAISSSGGITYYADSVKGRFTISRDNAKNTVYLQMNSLKPEDTAVYYCAADVIVFYYGPNYWGDIGYGYWGQGTQVTVSS | low polyreactivity
QVQLVESGGGLVQAGGSLRLSCAASGFILYSYAMGWYRQAPGKERELVADITGTGGRTYYADSVKGRFTISRDNAKNTVYLQMNSLKPEDTAVYYCNKGPFFVFRTTRYYEYDYWGQGTQVTVSS | low polyreactivity
QVQLVESGGGLVQAGGSLRLSCAASGSTFFGNTMGRYRQAPGKERELVAAISRRGGSTYYADSVKGRFTISRDNAKNTVYLQMNSLKPEDTAVYYCAKYYHSGGYTPGKYDYWGQGTQVTVSS | high polyreactivity
QVQLVESGGGLVQAGGSLRLSCAASGSTFGYNAMGWYRQAPGKERELVAAITRSGGSTDYADSVKGRFTISRDNAKNTVYFQMNSLKPEDTAVYYCAAEGTGLQRYGYFGDDGYWGQGTQVTVSS | low polyreactivity
QVQLVESGGGLVQAGGSLRLSCAASGTIFVPYAMGWYRQAPGKERELVAVITSGGSTYYADSVKGRFTISRDNAKNTVYLQMNSLKPEDTAVYYCNADLYYVWSTLSQFDYWGQGTQVTVSS | low polyreactivity
QVQLVESGGGLVQAGGSLRLSCAASGGIFPTYVMGWYRQAPGKERELVAAIDRNGTSTTYADSVKGRFTISRDYAKNTVYLQMNSLKPEDTAVYYCAAGYNDQTSAYDYWGQGTQVTVSS | low polyreactivity
QVQLVESGGGLVQAGGSLRLSCAASGRTFYYNGMGWYRQAPGKERELVAAITSGGTTSYADSVKGRFTISRDNAKNTVYLQMNSLKPEDTAVYYCAKRTVPRYEYWGQGTQVTVSS | low polyreactivity
QVQLVESGGGLVQAGGSLRLSCAASGFIFPRYVMGWYRQAPGKERELVAAITQGGGSTYYADSVKGRFTISRDNAKNTVYLQMNSLKPEDTAVYYCAAEVWRSYGYWGQGTQVTVSS | low polyreactivity
QVQLVESGGGLVQAGGSLRLSCAASGITLYGYVMGWYRQAPGKERELVAAISASGGRTHYADSVKGRFTISRDNAKNTVYLQMNSLKPEDTAVYYCARAGSRSPGGYDYWGQGTQVTVSS | high polyreactivity
QVQLVESAGGLVQAGGSLRLSCAASGGTFLQYAMGSYRQAPGKERELVATITLIGDSTYYADSVKGRFTISRDNAKNTVYLQMNSLIPEDTAVYYCADRPVTSYAYGSWGQGTQVTVSS | low polyreactivity
QVQVVESGGGLVQAGGSLRLSCAASGRTFNPNVMGWYRQAPGKERELVAAISRGGSTYYADSVKGLFTISRDNAKNTVYLQMNSLKPEDTAVYYCAATHYGHSISNWFDYWGQGTQVTVSS | high polyreactivity
QVHLVQTRGGLVQAGGSLRLSCAASGLTFTYYAMGWNRPEPGKERQLVSAISSSGSDTYYADSVKGRFTISRDYALNTVYFQMNSLKTEDTAVYYCAAVLTALSPDFEYEYWGQGTQVTVSS | low polyreactivity
QVQLVESGGGLVQAGASLRLSSAASGFIFRDYAMGWYRQAPGKDRELVAAISRGGGTTYYEDSVKGRFTISRENAKNTVYLQMNSLTPEDTAVYYCAAKSAFPLDYWGQGTQVTVSS | high polyreactivity
QVQLVESGGGIVQAGGSLRLSCAASGRTFFLYTLGWYRQAPGKEREFVAAINYSGGRTYYADSVKGRFTISRDKAKNTVYLQMNSLKPEDTAVYYCAAYRGSYSYDYWGQGTQVTVSS | high polyreactivity
QVQLVESGGGLVQAGGSLRLSCAASGRIFFANAMGWYRQAPGKERELVAAITSDGSTDYADSVKGRFTISRDNAKNTVYLQMNSLKPEDTAVYYCNADAYYRYGITMDYWGQGTQVTVSS | low polyreactivity
QVQLVESGGGLVQAGGSLRLSCAASGRIFYGNPMGWYRQAPGKERELVAAISSGGGSTYYADSVKGRFTISRDNAKNTVYLQMNSLKPEDTAVYYCAADPVHRFPGTGGYWGQGTQVTVSS | low polyreactivity
QVQLVESGGGLVQAGGSLRLSCAASGSTFSPNAMGWYRQAPGKERELVADIDWSGGGTYYADSVKGRFTISRDNAKNTVYLQMNSLKPEDTAVYYCAAGYVWWPFEYDYWGQGTQVTVSS | high polyreactivity
